Substrate: N[C@@H](CCC(=O)N[C@H](CSc1ccc([N+](=O)[O-])cc1[N+](=O)[O-])C(=O)NCC(=O)O)C(=O)O
Assay: TP_TRANSPORTER: uptake in bile canalicular membrane vesicles from ddY mouse
Type: functional, cell membranes, Bile canalicular membrane vesicle

B1: ATP-binding cassette sub-family C member 2 (Mus musculus) (protein)
chain: MDEFCNSTFWNLSLLKSPEADLPLCFEQTVLVWIPLGFLWLLAPWQLYRIYRSRTKRFAITKFYLAKQVFVVCLLILAAIDLSLALTEDTGQATIPPVKYTNPILYLCTWLLVLVIQHCRQCCIQKNSWFLSMFWILSLLCGIFQFQTLIRALLQDSKSNMTYSCLFFVSYGFQIVILILSAFSESSDSTHAPSATASFLSSVTFSWYDSTVLKGYKHPLTIEDVWDIEENLKAKSLTSKFKTIMTKDLQKARQALQRRLKKSQQSPEGTSHGLTKKQSQSQDVLVLEDSKKKKKKSEATKDFPKSWLVKALFKTFYVVILKSFILKLAHDILLFLNPQLLKFLIGFVKDPDSYPWVGYIYAILMFSVTLIQSFFLQCYFQFCFVLGMTVRTTIIASVYKKALTLSNLARRQYTIGETVNLMSVDSQKLMDVTNYIHLLWSSVLQIALSIFFLWRELGPSILAGVGLMVLLVPVNGVLATKIRKIQVQNMKNKDKRLKIMNEILSGIKILKYFAWEPSFKEQVNSIRKKELRNLLRFSQLQTILIFILHLTPTLVSVITFSVYVLVDSQNVLNAEKAFTSITLFNILRFPLAMLPMVISSVIQASVSVDRLEQYLGSDDLDLSAIRHVCHFDKAVQFSEASFTWDRDLEATIQDVNLDIKPGQLVAVVGTVGSGKSSLISAMLGEMENVHGHITIKGSIAYVPQQAWIQNGTIKDNILFGSEYDEKKYQRVIEACALLPDLEMLPGGDMAEIGEKGINLSGGQKHRVSLARATYQDADIYILDDPLSAVDTHVGKHIFNKVVGPNGLLSGKTRILVTHGIHFLPQVDEIVVLGKGTILEKGSYSDLMDKKGVFAKNWKTFMKHSGPEGEATVDNDSEEEDGDCGLIPTVEEIPDDAASLTMRRENSLRRTLSRSSRSGSRRGKSLKSSLKIKSVNALNKKEEVVKGQKLIKKEFVETGKVKFSIYLKYLQAVGWWSLLFIVIFYVLNYVAFIGTNLWLSAWTSDSEKQNGTDNSPSQRDMRIGVFGALGIAQGIFLLSSSLWSIYACRNASKTLHRQLLTNILRAPMSFFDTTPTGRIVNRFAGDISTVDDTLPQTLRSWLLCFFGIVSTLVMICMATPIFIIIIIPLSILYVSVQVFYVATSRQLRRLDSVTKSPIYSHFSETVSGLPVIRAFEHQQRFLANSEKQIDTNQKCVFSWITSNRWLAIRLELVGNLIVFCSALLLVIYKNSLTGDTVGFVLSNALNITQTLNWLVRMTSEVETNIVAVERINEYINVDNEAPWVTDKKPPADWPKKGEIQFNNYQVRYRPELDLVLKGITCNIKSTEKVGVVGRTGAGKSSLTNCLFRILESAGGQIIIDGIDIASIGLHDLRGRLTIIPQDPILFSGNLRMNLDPFNKYSDEEIWRALELAHLKSFVAGLQLGLLHEVTEGGDNLSIGQRQLLCLGRAVLRKSKILVLDEATAAVDLETDSLIQTTIRNEFSQCTVITIAHRLHTIMDSDKIMVLDSGKIVEYGSPEELLSNMGPFYLMAKEAGIESVNHTEL
Km: 25.5 µM

From ChEMBL document CHEMBL2074291, “Species differences in the transport activity for organic anions across the bile canalicular membrane” (J Pharmacol Exp Ther, 1999)
